Reference: publication PMC11187563, “The importance of tyrosines in multimers of cyclic RGD nonapeptides: towards αvβ6-integrin targeted radiotherapeutics” (RSC Medicinal Chemistry, 2024)
Read-outs that look alike come from different tables or passages of the source.

What was measured:
[1] = test system: αvβ6-integrin expressing human lung adenocarcinoma cell line H2009 xenografts; assay: Ex vivo biodistribution of 177Lu-labeled peptide tetramers in H2009 xenografted SCID mice; conditions: H2009 bearing SCID mice
Experimental: (§1) The biodistribution of the ^177Lu-labeled peptide conjugates was investigated in severe combined immunodeficiency (SCID) mice bearing subcutaneous xenografts of the αvβ6-integrin expressing human lung adenocarcinoma cell line H2009 on their right shoulders. Two representative time points after i.v. administration (p.i.) were evaluated.
(§2) Analytical HPLC was performed on a Shimadzu (Kyoto, Japan) Prominence HPLC system equipped with either a Dr. Maisch ReproSil Pur C18 AQ 150 × 4.6 mm, 5 μm, 120 Å (AC1) or a Phenomenex Kinetex C18 150 × 4.6 mm 5 μm column (AC2). Semipreparative HPLC was performed on a Shimadzu HPLC system equipped with either a Dr. Maisch ReproSil Pur C18 AQ 250 × 10 mm, 5 μm, 120 Å column with 5 mL min^−1 flow (PC1) or a Dr. Maisch ReproSil Pur C18 150 × 30 mm, 5 μm, 120 Å column with 20 mL min^−1 flow (PC2). Solvents for both systems were water (A) and acetonitrile (B) each supplemented with 0.1% (vol) trifluoroacetic acid (TFA). ESI-MS spectra (positive mode) were recorded on a Shimadzu LC-MS 2020 single quadrupol mass spectrometer. Solvents for MS applications were water (A) and acetonitrile (B) each supplemented with 0.1% (vol) formic acid. The other experimental procedures (determination of log D7.4, cultivation of H2009 human lung adenocarcinoma cells, generation of tumor xenografts in CB17 SCID mice, and biodistribution) were performed as described before.[28] All animal experiments have been carried out according to applicable law and institutional guidelines of Technical University of Munich, and were approved by the responsible local authority (Regierung von Oberbayern). The H2009 cells were regularly authenticated and tested for mycoplasma contamination. DOTPI-tetraazide,[43]FF (previously termed AvB6),[29]FY,[34] and YY (also referred to as Tyr2-alkyne)[36] were synthesized as described previously.

[2] = as above; conditions: CB17 SCID, mouse, iv, total radioactivity, H2009 bearing SCID mice; for tissue uptake at 72 h / tissue to tissue ratio at 72 h: 42 pmol, 3 d p.i.; for tissue uptake at 1.5 h / tissue to tissue ratio at 1.5 h: 139 pmol, 90 min p.i.
Experimental: as §1, §2

[3] = H2009 tumor, read-out: Tumor H2009 %IA/g
[4] = adrenals, read-out: Adrenals %IA/g
[5] = heart (myocard), read-out: Heart (myocard) %IA/g
[6] = kidneys, read-out: Kidneys %IA/g
[7] = large intestine (empty), read-out: Large intestine (empty) %IA/g
[8] = pancreas, read-out: Pancreas %IA/g
[9] = small intestine (empty), read-out: Small intestine (empty) %IA/g
[10] = stomach (empty), read-out: Stomach (empty) %IA/g
[11] = tumor/blood, read-out: tumor/organ ratio, Blood
[12] = tumor/heart (myocard), read-out: tumor/organ ratio, Heart (myocard)
[13] = tumor/liver, read-out: tumor/organ ratio, Liver
[14] = tumor/lung, read-out: tumor/organ ratio, Lung
[15] = tumor/pancreas, read-out: tumor/organ ratio, Pancreas
[16] = tumor/spleen, read-out: tumor/organ ratio, Spleen

Structure (SMILES): CC(C)C[C@@H]1NC(=O)[C@H](CC(=O)O)NC(=O)CNC(=O)[C@H](CCCNC(=N)N)NC(=O)[C@H](Cc2ccccc2)NC(=O)[C@H](CCCCNC(=O)CCc2cn(CCCNC(=O)CCP(=O)(O)CN3CCN(CP(=O)(O)CCC(=O)NCCCn4cc(CCC(=O)NCCCC[C@H]5C(=O)N[C@@H](Cc6ccccc6)C(=O)N[C@@H](CCCNC(=N)N)C(=O)NCC(=O)N[C@@H](CC(=O)O)C(=O)N[C@@H](CC(C)C)C(=O)N[C@@H](C)C(=O)N[C@@H](Cc6ccc(O)cc6)C(=O)N6CCC[C@@H]6C(=O)N5C)nn4)CCN(CP(=O)(O)CCC(=O)NCCCn4cc(CCC(=O)NCCCC[C@H]5C(=O)N[C@@H](Cc6ccccc6)C(=O)N[C@@H](CCCNC(=N)N)C(=O)NCC(=O)N[C@@H](CC(=O)O)C(=O)N[C@@H](CC(C)C)C(=O)N[C@@H](C)C(=O)N[C@@H](Cc6ccc(O)cc6)C(=O)N6CCC[C@@H]6C(=O)N5C)nn4)CCN(CP(=O)(O)CCC(=O)NCCCn4cc(CCC(=O)NCCCC[C@H]5C(=O)N[C@@H](Cc6ccccc6)C(=O)N[C@@H](CCCNC(=N)N)C(=O)NCC(=O)N[C@@H](CC(=O)O)C(=O)N[C@@H](CC(C)C)C(=O)N[C@@H](C)C(=O)N[C@@H](Cc6ccc(O)cc6)C(=O)N6CCC[C@@H]6C(=O)N5C)nn4)CC3)nn2)N(C)C(=O)[C@H]2CCCN2C(=O)[C@H](Cc2ccccc2)NC(=O)[C@H](C)NC1=O [Compound 177Lu-Y3, metal not drawn]
- tumor/organ ratio, Kidneys ([1]; 90 min p.i.): 0.0
- tumor/organ ratio, Kidneys ([1]; 3 d p.i.): 0.0
- tissue uptake at 72 h [2, 3]: 2.03 %ID/g
- tissue uptake at 1.5 h [2, 3]: 3.7 %ID/g
- tissue uptake at 72 h [2, 4]: 0.27 %ID/g
- tissue uptake at 1.5 h [2, 4]: 1.04 %ID/g
- tissue uptake at 72 h ([2]; blood, read-out: Blood %IA/g): 0.02 %ID/g
- tissue uptake at 1.5 h ([2]; blood, read-out: Blood %IA/g): 1.11 %ID/g
- tissue uptake at 72 h ([2]; bone, read-out: Bone %IA/g): 0.35 %ID/g
- tissue uptake at 1.5 h ([2]; bone, read-out: Bone %IA/g): 1.51 %ID/g
- tissue uptake at 72 h [2, 5]: 0.22 %ID/g
- tissue uptake at 1.5 h [2, 5]: 0.65 %ID/g
- tissue uptake at 72 h [2, 6]: 250 %ID/g
- tissue uptake at 1.5 h [2, 6]: 141 %ID/g
- tissue uptake at 72 h [2, 7]: 1.34 %ID/g
- tissue uptake at 1.5 h [2, 7]: 3.43 %ID/g
- tissue uptake at 72 h ([2]; liver, read-out: Liver %IA/g): 1.17 %ID/g
- tissue uptake at 1.5 h ([2]; liver, read-out: Liver %IA/g): 7.59 %ID/g
- tissue uptake at 72 h ([2]; lung, read-out: Lung %IA/g): 1.22 %ID/g
- tissue uptake at 1.5 h ([2]; lung, read-out: Lung %IA/g): 4.91 %ID/g
- tissue uptake at 72 h ([2]; muscle, read-out: Muscle %IA/g): 0.47 %ID/g
- tissue uptake at 1.5 h ([2]; muscle, read-out: Muscle %IA/g): 0.57 %ID/g
- tissue uptake at 72 h [2, 8]: 0.25 %ID/g
- tissue uptake at 1.5 h [2, 8]: 0.36 %ID/g
- tissue uptake at 72 h [2, 9]: 0.37 %ID/g
- tissue uptake at 1.5 h [2, 9]: 2.49 %ID/g
- tissue uptake at 72 h ([2]; spleen, read-out: Spleen %IA/g): 1.36 %ID/g
- tissue uptake at 1.5 h ([2]; spleen, read-out: Spleen %IA/g): 8.5 %ID/g
- tissue uptake at 72 h [2, 10]: 4.76 %ID/g
- tissue uptake at 1.5 h [2, 10]: 7.42 %ID/g
- tissue to tissue ratio at 72 h ([2]; tumor / adrenals, read-out: tumor/organ ratio, Adrenals): 8.4
- tissue to tissue ratio at 72 h ([2]; tumor / bone, read-out: tumor/organ ratio, Bone): 6.6
- tissue to tissue ratio at 72 h ([2]; tumor / large intestine (empty), read-out: tumor/organ ratio, Large intestine (empty)): 2.3
- tissue to tissue ratio at 72 h ([2]; tumor / muscle, read-out: tumor/organ ratio, Muscle): 5.3
- tissue to tissue ratio at 72 h ([2]; tumor / small intestine (empty), read-out: tumor/organ ratio, Small intestine (empty)): 6.6
- tissue to tissue ratio at 72 h ([2]; tumor / stomach (empty), read-out: tumor/organ ratio, Stomach (empty)): 0.5
- tissue to tissue ratio at 1.5 h ([2]; tumor/adrenals, read-out: tumor/organ ratio, Adrenals): 3.9
- tissue to tissue ratio at 72 h [2, 11]: 129
- tissue to tissue ratio at 1.5 h [2, 11]: 3.4
- tissue to tissue ratio at 1.5 h ([2]; tumor/bone, read-out: tumor/organ ratio, Bone): 2.5
- tissue to tissue ratio at 72 h [2, 12]: 9.4
- tissue to tissue ratio at 1.5 h [2, 12]: 5.8
- tissue to tissue ratio at 1.5 h ([2]; tumor/large intestine (empty), read-out: tumor/organ ratio, Large intestine (empty)): 1.1
- tissue to tissue ratio at 72 h [2, 13]: 1.9
- tissue to tissue ratio at 1.5 h [2, 13]: 0.6
- tissue to tissue ratio at 72 h [2, 14]: 1.7
- tissue to tissue ratio at 1.5 h [2, 14]: 0.8
- tissue to tissue ratio at 1.5 h ([2]; tumor/muscle, read-out: tumor/organ ratio, Muscle): 6.6
- tissue to tissue ratio at 72 h [2, 15]: 10.6
- tissue to tissue ratio at 1.5 h [2, 15]: 10.3
- tissue to tissue ratio at 1.5 h ([2]; tumor/small intestine (empty), read-out: tumor/organ ratio, Small intestine (empty)): 1.5
- tissue to tissue ratio at 72 h [2, 16]: 1.7
- tissue to tissue ratio at 1.5 h [2, 16]: 0.5
- tissue to tissue ratio at 1.5 h ([2]; tumor/stomach (empty), read-out: tumor/organ ratio, Stomach (empty)): 0.5
